What was measured:
[1] = target: T1, soluble human CD40-MsIgG2a (human, UniProt P25942); experiment: BLI (Octet QKe), antibody captured on anti-human Fc (AHC) biosensors, analyte soluble human CD40-MsIgG2a 3.13 to 0.098 nM, 25 C, 1:1 fit; column head kdis(1/s)
T1 construct: soluble, fused to mouse IgG2a; also called recombinant human CD40-msG2a chimeric protein; CD40-MsIgG2a (Celldex, 60 kD by SDS-PAGE)
Procedure: Purified antibodies from Example 1 were captured on Anti-Human Fc Capture (AHC) biosensors (Fortebio Product No. 18-5060). Each antibody was prepared in dilution buffer (10mMPO4+150 mM NaCl+1 mg/mL BSA+0.5% Tween 20, pH 7.2) to 0.5 μg/mL and loaded on freshly hydrated AHC biosensors for 35-50 sec at 25° C. and 1000 rpm plate shake speed to achieve a target response of 0.2 nm. Low levels of ligand were captured to limit any effects of mass transport of analyte on kinetic parameters. For one assay, eight biosensors were loaded with the same antibody.
Binding was determined by exposing six of the antibody loaded biosensors to analyte: soluble human CD40-MsIgG2a (Celldex, 60 kD by SDS-PAGE). Affinity measurements were determined using 2-fold serial dilutions of analyte ranging from 3.13 to 0.098 nM in dilution buffer at 25° C. and 1000 rpm plate shake speed. Association of the antibody loaded biosensors in analyte wells was carried out for 1200 seconds, the biosensors were then moved to dilution buffer wells for 2.5 hrs (9000 sec) for dissociation measurements.
Fortebio's Data Analysis Software version 8.2.0.7 (Pall ForteBio, Menlo Park, CA) was used in each case to derive kinetic parameters from the concentration series of analyte in dilution buffer binding to captured antibody. The association and dissociation curves were fitted to a 1:1 binding model using the data analysis software according to the manufacturer's guidelines.

[2] = target: T2, kappa-sCD40-Flag fusion protein, fragment amino acids 84-173 (human, UniProt P25942 104-193); experiment: ELISA, kappa-sCD40-Flag fragment captured on anti-Flag
T2 construct: not shown: N-terminal human kappa light chain; C-terminal Flag tag
T2 sequence (P25942 104-193): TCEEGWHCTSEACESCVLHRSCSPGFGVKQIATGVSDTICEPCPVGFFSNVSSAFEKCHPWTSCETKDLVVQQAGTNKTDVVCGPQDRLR
Procedure: (§1) 1 μg/ml of purified kappa-sCD40-Flag fusion proteins or CHO cell supernatants containing the sCD40 fusion proteins were captured to microtiter plates that were pre-coated with 5 μg/ml mouse anti-Flag antibody (Sigma) in PBS and blocked with 5% bovine serum albumin in PBS. Following incubation with the CD40 antibody, the microplates were washed with PBS/Tween, and incubated with a goat anti-human IgG Fc polyclonal reagent conjugated to horseradish peroxidase. After washing, the plates were developed with HRP substrate, and analyzed at OD 450-650 using a microtiter plate reader. An ELISA with a goat anti-human IgG Fab2-HRP to measure kappa chain binding was carried out in parallel to validate the sCD40 fusion protein expression from different transfections.

[3] = target: T3, kappa-sCD40-Flag fusion protein, fragment amino acids 36-130 (human, UniProt P25942 56-150); experiment: as above
T3 construct: not shown: N-terminal human kappa light chain; C-terminal Flag tag
T3 sequence (P25942 56-150): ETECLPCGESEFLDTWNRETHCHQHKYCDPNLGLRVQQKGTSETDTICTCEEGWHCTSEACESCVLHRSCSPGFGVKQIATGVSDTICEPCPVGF
Procedure: as §1

[4] = target: T4, kappa-sCD40(1-94)-Flag point mutant P2Q (human, UniProt P25942 21-114); experiment: ELISA, kappa-sCD40-Flag fusion (~2 ug/ml) captured on anti-Flag, anti-human IgG Fc-HRP
T4 construct: not shown: N-terminal human kappa light chain; C-terminal Flag tag
T4 chain: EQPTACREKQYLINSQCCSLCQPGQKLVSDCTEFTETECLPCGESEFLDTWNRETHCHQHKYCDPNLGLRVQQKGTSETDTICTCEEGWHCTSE
Procedure: as §1, with “containing” for “1 μg/ml of purified kappa-sCD40-Flag fusion proteins or CHO cell supernatants containing”

[5] = target: T5, kappa-sCD40(1-94)-Flag point mutant E36K (human, UniProt P25942 21-114); experiment: as above
T5 construct: not shown: N-terminal human kappa light chain; C-terminal Flag tag
T5 chain: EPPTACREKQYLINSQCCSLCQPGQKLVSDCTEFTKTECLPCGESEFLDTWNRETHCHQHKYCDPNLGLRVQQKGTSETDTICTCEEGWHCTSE
Procedure: as §1, with “containing” for “1 μg/ml of purified kappa-sCD40-Flag fusion proteins or CHO cell supernatants containing”

[6] = target: T4, kappa-sCD40(1-94)-Flag point mutant P2Q; experiment: ELISA, kappa-sCD40-Flag fusion captured on anti-Flag, anti-human IgG Fc-HRP
[7] = target: T6, kappa-sCD40(1-94)-Flag mutant fragment C (multiple mutations of residues 25, 26, 28 and 30); experiment: as above
T6 construct: also called C (25, 26, 28, 30)

[8] = target: T7, kappa-sCD40(1-94)-Flag mutant fragment B (multiple mutations of residues 13-15); experiment: as above
T7 construct: also called B (13-15)

[9] = target: T8, kappa-sCD40(1-94)-Flag mutant fragment A (multiple mutations of residues 1-5) (human, UniProt P25942 26-114); experiment: as above
T8 construct: The text says only multiple mutations of residues 1-5 (human to mouse differences); that mutant A carries exactly these is inferred; also called A (1-5); not shown: N-terminal human kappa light chain; C-terminal Flag tag
Procedure: as §1

[10] = target: T6, kappa-sCD40(1-94)-Flag mutant fragment …; experiment: as above; remark: listed apart in the source
Procedure: as §1

[11] = target: T9, kappa-sCD40(1-94)-Flag mutant fragment D (multiple mutations of residues 33-36) (human, UniProt P25942 21-114); experiment: as above
T9 construct: The text says only multiple mutations of residues 33-36 (human to mouse differences); that mutant D carries exactly these is inferred; also called D (33-36); not shown: N-terminal human kappa light chain; C-terminal Flag tag
T9 chain: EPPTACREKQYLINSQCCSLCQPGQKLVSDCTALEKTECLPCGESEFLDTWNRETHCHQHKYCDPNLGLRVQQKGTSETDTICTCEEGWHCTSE
Procedure: as §1

[12] = target: T7, kappa-sCD40(1-94)-Flag mutant fragment …; experiment: as above; remark: listed apart in the source
Procedure: as §1

T1 sequence (P25942 21-193 limits assumed): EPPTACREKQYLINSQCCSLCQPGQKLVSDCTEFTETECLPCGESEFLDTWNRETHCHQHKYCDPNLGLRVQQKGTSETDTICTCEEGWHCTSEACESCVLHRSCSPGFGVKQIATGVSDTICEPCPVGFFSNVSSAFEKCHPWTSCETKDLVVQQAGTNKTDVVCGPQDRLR

- koff [1]: 8.67e-06 s⁻¹
- binding result [2]: no binding (tested: ~1 ug/ml fragment)
- binding result [3]: no binding (tested: ~1 ug/ml fragment)
- Average OD [4]: 2.08 OD 450-650
- Average OD [5]: 1.37 OD 450-650
- OD [6]: 2.2 OD 450-650
- OD [7]: 2.02 OD 450-650
- OD [8]: 2.38 OD 450-650
- Average OD [9]: 0.189 OD 450-650
- Average OD [10]: 1.49 OD 450-650
- Average OD [11]: 0.092 OD 450-650
- Average OD [12]: 2.03 OD 450-650
B1: anti-CD40 human monoclonal antibody 3C3 (antibody, human IgG2, kappa, V domains shown)
VH: QVQLVESGGGVVQPGRSLRLSCAGSGFIFSRYGMYWVRQAPGKGLEWVAVIWYDGSYKYYADSVKGRFTISRDNSKNTLYLQMNSLRAEDTAVYYCARESPWYYFDYWGQGTLVTVSS
VL: DIQMTQSPSSLSASVGDRVTITCRASQGISNYLAWYQQKPGKVPKLLIYAASTLQSGVPSRFSGSGSGTDFTLTISSLQPEDVATYYCQKYKSAPFTFGPGTKVDIKR
notes: Human IgG2, C-terminal lysine removed; also called anti-CD40 mAb 3C3; CD40 antibody 3C3
